Patent US6518054B1, “Metallo-endopeptidases” (Rijksuniverstteit Te Groningen, priority 1997, dated 2003)

Tests used:
Type in all cases: biochemical
[1] = test system: α-amylase from Bacillus licheniformis; experiment: Hydrolysis of protease resistant α-amylase (SDS-PAGE); details: 60 minutes
Description: As an example of the enzymatic activity of the 8-fold mutant we tested the hydrolysis of protease resistant α-amylase from Bacillus licheniformis by the 8-fold mutant. B. licheniformis α-amylase (1 mg/ml) in 50 mM MOPS, pH 7.0, 5 mM CaCl2, 0.01% Triton X-100 was incubated with purified TLP-ste (1 μg/ml), the 8-fold mutant or without protease for 60 minutes at the temperature indicated. The reaction volume was 500 μL. […] Precipitates (only observed in the 100° C. samples) were collected by centrifugation and redissolved in 500 μL 6 M Urea. Both supernatants and redissolved precipitates were subjected to standard SDS-PAGE, including pre-treatment with sample loading buffer (5 minutes at 100° C.). The samples were identical in size (20 μL supernatant and 20 μL dissolved precipitate). Gels were stained with Coomassie-brilliant blue.

casein [2] = experiment: Optimum temperature for activity with casein
Description: Specific activities for TLP-ste and the 8-fold mutant were determined using casein (0.8%) as a substrate in 50 mM Tris-HCl (pH 7.5), 5 mM CaCl2 at 37° C. […] (pH 7.0), 5 mM CaCl2, 5% or 1% DMSO, 0.5% isopropanol, 0.01% Triton X-100, 50 mM NaCl, with […] of substrate, by measuring the decrease in absorption at 345 nm (Î345=−317 M^−1·cm^−1). Stock solutions of the furylacryloylated dipeptides, (Sigma, St. Louis, […].) were prepared by dissolving 3-(-2-furylacryloyl)-L-glycyl-L-leucine amide (FaGLa) and 3-(-2-furylacryloyl)-L-alanyl-L-phenylalanine amide (FaAFa) in DMSO. The kcat/Km ratios of the enzymes were determined by varying the enzyme concentrations (over a 50 fold range) under pseudo-first order conditions by measuring the initial activity, essentially according to the method described by Feder^30. The Ki for phosphoramidon (N-[a-L-rhamnopyrano-syl-oxyhydroxyphophinyl]-L-leucyl-L-tryptophan) was determined by a 30 minute preincubation of a 100 pM protease solution with varying concentrations of the inhibitor (10^−8 to 10^−3 M), in 50 mM MOPS (pH 7.0), 5 mM CaCl2, 50 mM NaCl, prior to the addition of the furylacryloated substrate. For determination of the Ki FaAFa was used as the substrate. Since the Km of the substrate for the enzyme is higher than the concentration used, IC50 values were taken to be equal to Ki values. The optimum temperature for activity was determined by incubating proteases with casein (0.8%) in 50 mM Tris-HCl (pH 7.5), 5 mM CaCl2, at different temperatures for 30 minutes, after which the amount of released peptides, indicative for activity, was measured^11.

casein [3] = experiment: Hydrolysis of 10% (w/v) casein compared with commercial enzyme preparations; details: casein 10% w/v
Excerpt: In industrial applications enzymes are used for the hydrolysis of protein preparations derived from different sources. Here we show the results of a comparative study in which the rate and quality of hydrolysis of casein and yeast protein preparations by the 8-fold mutated TLP-ste variant was compared with that obtained by the hydrolysis using 3 different enzyme preparations that are used for these purposes in industry. The hydrolysis conditions were chosen such that they were optimal for each of the enzyme preparation under study. The hydrolysis products were separated in an acid-soluble and a not acid-soluble fraction. The amount of acid-soluble protein material formed upon hydrolysis was determined by means of measuring the absorbance at 275 nm, whereas the composition of the acid-insoluble hydrolysis products was studied using SDS-PAGE.
Substrate (10% w/v of casein or yeast protein preparation) was incubated in 50 mM Tris-MES, 5 mM CaCl2, pH 6.5 at 50° C. (Enzyme I, Favourzyme™ 1000L); 50 mM Tris-MES, 5 mM CaCl2, pH 6.0 at 60° C. (Enzyme II, BioProtease N100L); 50 mM Tris-MES, 5 mM CaCl2, pH 8.0 at 60° C. […] The amount of acid-soluble protein released by hydrolysis was determined by measuring the absorbance of the samples at 275 nm. The acid precipitated proteins were redisolved in 6 M urea and subsequently analysed by SDS-PAGE (15% running gel).

[4] = Effect of denaturing agents on protease activity (FaGLa, 50° C.)
Description: Protease activities were determined in 50 mM MOPS (pH 7.0), 5 mM CaCl2, 50 mM NaCl, 0.01% Triton X-100, 0.5% isopropanol, using 100 μM FaGLa (3-(-2-furylacryloyl)-L-glycyl-L-leucine amide) as a substrate at 50° C. Enzymes and denaturing agents were preincubated in the reaction mixture at 50° C. for 15 minutes prior to the addition of the substrate. The reaction was followed by measuring the change in absorbance at 345 nm. […] Activities are expressed as percentage of the activity in the absence of denaturant.

β-Casein = experiment: Proteolytic (cleavage) specificity on β-casein, reversed phase peptide pattern; details: moderate and high temperatures (60° C. and 100° C.)
Description: FIG. 3. Typical proteolytic specificity of TLP-ste and the 8-fold mutant β-Casein (1 mg/ml) was incubated with TLP-ste or the 8-fold mutant at a molar ratio of 1000:1 for 1 hour at 60° C. and 100° C., respectively. Under these conditions β-casein behaves as a non-compact and largely flexible structure. The peptides resulting from hydrolysis were derivatized with dansyl-chloride. The proteolytic products were separated by loading a sample corresponding to 50 μg β-casein on a reversed phase column (RP-304, Bio-Rad Laboratories, Watford, Herts., UK). The mobile phase used was 50 mM NaAc, pH 5.2. Peptides were eluted with a linear gradient from 0-60% acetonitrile at a flow rate of 1 ml/min. Absorption of the eluting peptides was monitored at 254 nm.

B1: 8-fold mutant: TLP-ste with A4T, T56A, G58A, T63F, S65P, A69P and a disulfide bridge G8C-N60C (protein)
chain: VAGTSTVCVGRGVLGDQKYINTTYSSYYGYYYLQDNTRGSGIFTYDGRNRTVLPGSLWADADCQFFAPYDAPAVDAHYYAGVVYDYYKNVHGRLSYDGSNAAIRSTVHYGRGYNNAFWNGSQMVYGDGDGQTFLPFSGGIDVVGHELTHAVTDYTAGLVYQNESGAINEAMSDIFGTLVEFYANRNPDWEIGEDIYTPGVAGDALRSMSDPAKYGDPDHYSKRYTGTQDNGGVHTNSGIINKAAYLLSQGGVHYGVSVNGIGRDKMGKIFYRALVYYLTPTSNFSQLRAACVQAAADLYGSTSQEVNSVKQAFNAVGVY
degradation of B. licheniformis α-amylase ([1]; 80° C. and lower): No significant degradation | hydrolysis of B. licheniformis α-amylase ([1]; 100° C.): completely hydrolysed | rise of temperature for optimum activity versus wild-type (casein [2]): 21 °C | Topt (optimum temperature for activity) (casein [2]; casein 0.8%, 30 minutes): 95 °C | range of hydrolysis products (SDS-PAGE) versus the other enzymes (casein [3]): much broader range of hydrolysis products | rate of hydrolysis and acid-soluble protein products versus the other enzyme preparations (casein [3]; enzyme 0.05% v/v, pH 7.0, 90° C.): more rapidly and that more acid-soluble protein products are produced | activity and stability in the presence of high concentrations of denaturing agents [4]: active and stable | relative activity ([4]; GndHCl 0 M): 100% | relative activity ([4]; GndHCl 1.0 M): 95% | relative activity ([4]; GndHCl 2.0 M): 83% | relative activity ([4]; GndHCl 3.0 M): 68% | relative activity ([4]; GndHCl 4.0 M): 50% | relative activity ([4]; GndHCl 5.0 M): 40% | relative activity ([4]; GndHCl 5.5 M): 15% | relative activity ([4]; GndHCl 6.0 M): 0% | relative activity ([4]; SDS 0 % w/v): 100% | relative activity ([4]; SDS 0.25 % w/v): 94% | relative activity ([4]; SDS 0.5 % w/v): 81% | relative activity ([4]; SDS 0.75 % w/v): 57% | relative activity ([4]; SDS 1.0 % w/v): 40% | relative activity ([4]; SDS 1.25 % w/v): 29% | relative activity ([4]; SDS 1.5 % w/v): 22% | relative activity ([4]; SDS 2.0 % w/v): 0% | relative activity ([4]; Urea 0 M): 100% | relative activity ([4]; Urea 0.5 M): 97% | relative activity ([4]; Urea 1.0 M): 91% | relative activity ([4]; Urea 2.0 M): 93% | relative activity ([4]; Urea 3.0 M): 86% | relative activity ([4]; Urea 4.0 M): 72% | relative activity ([4]; Urea 5.0 M): 63% | relative activity ([4]; Urea 7.5 M): 35% | cleavage specificity, effect of the stabilizing mutations (β-Casein): largely unaffected
